According to patent publication US20200299408A1 (Genentech, published 2020):
Residue numbers refer to the chain shown, from its start.

T1: single chain human CD3ε-26mer-CD3γ (CD3εγ) (human)
T1 construct: also called human CD3εγ
T1 chain: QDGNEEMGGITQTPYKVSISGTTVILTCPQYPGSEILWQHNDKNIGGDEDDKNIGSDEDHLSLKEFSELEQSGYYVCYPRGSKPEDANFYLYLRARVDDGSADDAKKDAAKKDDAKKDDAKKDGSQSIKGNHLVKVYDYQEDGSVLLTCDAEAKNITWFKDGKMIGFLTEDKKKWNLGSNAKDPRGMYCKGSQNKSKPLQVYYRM

B1: 40G5c Fab (Fab, V domains shown)
VH: EVQLVQSGAEVKKPGASVKVSCKASGYTFTNYYIHWVRQAPGQGLEWIGWIYPGDGNTKYNEKFKGRATLTADTSTSTAYLELSSLRSEDTAVYYCARDSYSNYYFDYWGQGTLVTVSS
VL: DIVMTQSPDSLAVSLGERATINCKSSQSLLNSRTRKNYLAWYQQKPGQPPKLLIYWASTRESGVPDRFSGSGSGTDFTLTISSLQAEDVAVYYCTQSFILRTFGQGTKVEIK
B2: 38E4v8 Fab (Fab, V domains shown)
VH: EVQLVQSGAEVKKPGASVKVSCKASGFTFTSYYIHWVRQAPGQGLEWIGWIYPENDNTKYNEKFKDRVTITADTSTSTAYLELSSLRSEDTAVYYCARSGYSRYYFDYWGQGTLVTVSS
VL: B1 VL with P49S, A57T, E61K, T95K
B3: 38E4v4 Fab (Fab, V domains shown)
VH: B2 VH with S99D
VL: B1 VL with P49S, A57T, E61K, T95K, Q96A
B4: 38E4v5 Fab (Fab, V domains shown)
VH: B2 VH with S99D
VL: B1 VL with P49S, A57T, E61K, T95K, F98A
B5: 38E4v3 Fab (Fab, V domains shown)
VH: B2 VH with S99D
VL: B1 VL with P49S, A57T, E61K, T95K, I99A
B6: 38E4v6 Fab (Fab, V domains shown)
VH: B2 VH with S99T
VL: B1 VL with P49S, A57T, E61K, T95K
B7: 38E4v2 Fab (Fab, V domains shown)
VH: B2 VH with S99D, G100A
VL: B1 VL with P49S, A57T, E61K, T95K
B8: 38E4v7 Fab (Fab, V domains shown)
VH: B2 VH with S99D, Y105A
VL: B1 VL with P49S, A57T, E61K, T95K
B9: 38E4v9 Fab (Fab, V domains shown)
VH: B2 VH with S99D, Y104A
VL: B1 VL with P49S, A57T, E61K, T95K
B10: 127B3 (antibody, IgG3, V domains shown)
VH: QVQLQQSGSELVRPGASLKLSCKASGYTFTSYWMHWVRQRPGQGLEWIGNFYPGDLTVNYDEKFKNKVTLAVDTSSSTAFLQLSSLTSEDSAVYYCTRDAYSRYFFDYWGQGTTLTVSS
VL: DIVMTQSPSSLAVSAGEKVTMSCKSSQSLLNSRTRKNYLAWYQQKPGQSPKLLIYWASTRESGVPDRFTGSGSGTDFTLTISSVQTEDLAVYYCCQSFILRTFGGGTKLEIK
notes: mouse hybridoma clone
B11: 40D2 (antibody, IgG2b, V domains shown)
VH: QVQLQQSGPELVKPGASLKISCKASGYSFANYYTHWVRQRPGQGLEWIGWLYPGNGDTRYNEKFKDKATLTADTSSNTASMQLNSLTSEDSAVYYCTRDSYGNYFFDYWGQGTTLIVSS
VL: B10 VL with Y55F, T86A, C95K, I111L
notes: mouse hybridoma clone
B12: 39B7 (antibody, IgG2b, V domains shown)
VH: QVQLQQSGPELVKPGTSVKISCKTSGYNFINYYTHWVKQRPGQGLEWIGWIYPGNGNIKYNEKFMGKATLTADTSSTTAHMHLSSLVSEDSAVYYCARDSYGSYYFDYWGQGTTLTVSS
VL: B10 VL with S22T, T86A, C95K
notes: mouse hybridoma clone
B13: 95A2 (antibody, IgG3, V domains shown)
VH: QVQLQQSGPEMVKPGASVTISCKTSGFTFTSYYIHWMMQRPGQGLEWIGWLYPGDVSTRYNEKFRDKATLTADKSSTTAYLYLSSLTSEDSAVYFCARDSSASYYFDFWGQGTTLTVSS
VL: B10 VL with K18M, M21L, S22H, S32I, Q43L, K51R, E61A, T86P, C95T, I111L
notes: mouse hybridoma clone
B14: 118G9 (antibody, IgG3, V domains shown)
VH: QVQLQQPGSELVRPGASVTLSCTASGYSFTSYWMHWVKQRPGQGLEWVGNIYPGGEIINYAEKFKTKGTLTVDISSSTAYMHLSSLTSDDSAVYYCTRDTTGNYFFDYWGQGTTLTVSS
VL: B10 VL with Q48L, D66E, C95T, K108R
notes: mouse hybridoma clone
B15: 79B7 (antibody, IgG3, V domains shown)
VH: B10 VH with F51S, T57N
VL: B10 VL
notes: mouse hybridoma clone
B16: 38E4 v2 (antibody, V domains shown)
VH: B2 VH with S99D, G100A
VL: B1 VL with P49S, A57T, E61K, T95K
B17: 38E4 v6 (antibody, V domains shown)
VH: B2 VH with S99T
VL: B1 VL with P49S, A57T, E61K, T95K
B18: 38E4 v4 (antibody, V domains shown)
VH: B2 VH with S99D
VL: B1 VL with P49S, A57T, E61K, T95K, Q96A
B19: 38E4 v3 (antibody, V domains shown)
VH: B2 VH with S99D
VL: B1 VL with P49S, A57T, E61K, T95K, I99A
B20: 38E4 v7 (antibody, V domains shown)
VH: B2 VH with S99D, Y105A
VL: B1 VL with P49S, A57T, E61K, T95K
B21: 38E4 v9 (antibody, V domains shown)
VH: B2 VH with S99D, Y104A
VL: B1 VL with P49S, A57T, E61K, T95K
B22: 38E4 v5 (antibody, V domains shown)
VH: B2 VH with S99D
VL: B1 VL with P49S, A57T, E61K, T95K, F98A
B23: 38E4 v8 (antibody, V domains shown)
VH: B2 VH
VL: B1 VL with P49S, A57T, E61K, T95K

Target: T1, single chain human CD3ε-26mer-CD3γ …
Assay: Biacore, human CD3εγ on chip, Fab in flow through
Method: Binding affinities for the each of the CD3/CD20 TDBs were tested by Biacore or FACS analysis, as described above for the anti-CD3 antibodies. Briefly, for Biacore binding assays, human CD3εγ was immobilized on Biacore Series S CM5 sensor chip using the amine coupling kit from Biacore and CD3/CD20 TDBs or Fab variants thereof were in the flow through. For FACS binding assays, either Bjab cells (for B cell antigens) or Jurkat cells (for CD3 antigen) were incubated with various concentrations of TDB antibodies at 4° C. for 30 minutes, then cells were washed and incubated with 2nd antibody (anti-huIgG-PE; BD Bioscience) for another 15 minutes, before cells were washed again and ready for FACS analysis.

| Kd | koff | kon | Binder |
| --- | --- | --- | --- |
| 63.2 nM | 0.0253 s⁻¹ | 401000 M⁻¹ s⁻¹ | B1 |
| 180 nM | 0.202 s⁻¹ | 1.12e+06 M⁻¹ s⁻¹ | B2 |
| 10.3 nM | 0.00336 s⁻¹ | 325000 M⁻¹ s⁻¹ | B3 |
| 11 nM | 0.0225 s⁻¹ | 2.05e+06 M⁻¹ s⁻¹ | B4 |
| 3.4 nM | 0.014 s⁻¹ | 4.11e+06 M⁻¹ s⁻¹ | B5 |
| 34.2 nM | 0.00175 s⁻¹ | 51100 M⁻¹ s⁻¹ | B6 |
| 1.6 nM | 0.00359 s⁻¹ | 2.29e+06 M⁻¹ s⁻¹ | B7 |
| 87 nM | 0.0246 s⁻¹ | 283000 M⁻¹ s⁻¹ | B8 |
| 229 nM | 0.0166 s⁻¹ | 72600 M⁻¹ s⁻¹ | B9 |

The binders below were run against CD3 antigen of Figures 3B and 3C (not named) (assay: kinetic table of IgGs; method and antigen not stated).

| Kd | koff | kon | Binder |
| --- | --- | --- | --- |
| 0.744 nM | 9.67e-05 s⁻¹ | 130000 M⁻¹ s⁻¹ | B10 |
| 0.563 nM | 0.000111 s⁻¹ | 197000 M⁻¹ s⁻¹ | B11 |
| 0.331 nM | 7.31e-05 s⁻¹ | 220000 M⁻¹ s⁻¹ | B12 |
| 0.0644 nM | 1.87e-05 s⁻¹ | 290000 M⁻¹ s⁻¹ | B13 |
| 0.209 nM | 3.74e-05 s⁻¹ | 179000 M⁻¹ s⁻¹ | B14 |
| 0.224 nM | 3.41e-05 s⁻¹ | 152000 M⁻¹ s⁻¹ | B15 |

Target: T1, single chain human CD3ε-26mer-CD3γ …
Assay: Biacore, human CD3εγ on chip, antibody in flow-through

| Kd | koff | kon | Binder |
| --- | --- | --- | --- |
| 1.6 nM | 0.0036 s⁻¹ | 2.29e+06 M⁻¹ s⁻¹ | B16 |
| 34 nM | 0.0017 s⁻¹ | 51100 M⁻¹ s⁻¹ | B17 |
| 10 nM | 0.0034 s⁻¹ | 325000 M⁻¹ s⁻¹ | B18 |
| 3.4 nM | 0.014 s⁻¹ | 4.11e+06 M⁻¹ s⁻¹ | B19 |
| 87 nM | 0.0246 s⁻¹ | 283000 M⁻¹ s⁻¹ | B20 |
| 229 nM | 0.0166 s⁻¹ | 72600 M⁻¹ s⁻¹ | B21 |
| 11 nM | 0.0225 s⁻¹ | 2.05e+06 M⁻¹ s⁻¹ | B22 |
| 180 nM | 0.202 s⁻¹ | 1.12e+06 M⁻¹ s⁻¹ | B23 |
